Laboratory results published in the supplement of paper PMC11316812.
± gives the standard deviation of the averaged measurements.

Legend:
MCF7 = assay: percentage of EdU-negative (G0-arrested) nuclei per well, 72 h; higher = more G0 arrest; conditions: reference: sequence is the full UniProt precursor, the tested protein was the secreted form or ectodomain
hTERT-HMEC = assay: as above; conditions: reference: sequence is the full UniProt precursor, the tested protein was the secreted form or ectodomain
[1] = protein concentration 0.02632 µM
[2] = protein concentration 0.2632 µM
[3] = protein concentration 0.0225 µM
[4] = protein concentration 0.03125 µM
[5] = protein concentration 0.3125 µM
[6] = protein concentration 0.0111429 µM
[7] = protein concentration 0.111429 µM
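Further: secreted proteins added to cultured cells, EdU pulse at the end, nuclei found by Hoechst imaging, EdU status from nuclear versus surrounding ring intensity ratio, PBS as neutral control.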

## MRGLLVLSVLLGAVFGKEDFVGHQVLRISVADEAQVQKVKELEDLEHLQLDFWRGPAHPGSPIDVRVPFPSIQAVKIFLESHGISYETMIEDVQSLLDEEQEQMFAFRSRARSTDTFNYATYHTLEEIYDFLDLLVAENPHLVSKIQIGNTYEGRPIYVLKFSTGGSKRPAIWIDTGIHSREWVTQASGVWFAKKITQDYGQDAAFTAILDTLDIFLEIVTNPDGFAFTHSTNRMWRKTRSHTAGSLCIGVDPNRNWDAGFGLSGASSNPCSETYHGKFANSEVEVKSIVDFVKDHGNIKAFISIHSYSQLLMYPYGYKTEPVPDQDELDQLSKAAVTALASLYGTKFNYGSIIKAIYQASGSTIDWTYSQGIKYSFTFELRDTGRYGFLLPASQIIPTAKETWLALLTIMEHTLNHPY
MCF7; [1]
  percentage of EdU-negative: 25.44 ± 0.046%
MCF7; [2]
  percentage of EdU-negative: 27.3 ± 3%
hTERT-HMEC; [1]
  percentage of EdU-negative: 5.61 ± 0.74%
hTERT-HMEC; [2]
  percentage of EdU-negative: 8.13 ± 1.2%

## MRGPSGALWLLLALRTVLGGMEVRWCATSDPEQHKCGNMSEAFREAGIQPSLLCVRGTSADHCVQLIAAQEADAITLDGGAIYEAGKEHGLKPVVGEVYDQEVGTSYYAVAVVRRSSHVTIDTLKGVKSCHTGINRTVGWNVPVGYLVESGRLSVMGCDVLKAVSDYFGGSCVPGAGETSYSESLCRLCRGDSSGEGVCDKSPLERYYDYSGAFRCLAEGAGDVAFVKHSTVLENTDGKTLPSWGQALLSQDFELLCRDGSRADVTEWRQCHLARVPAHAVVVRADTDGGLIFRLLNEGQRLFSHEGSSFQMFSSEAYGQKDLLFKDSTSELVPIATQTYEAWLGHEYLHAMKGLLCDPNRLPPYLRWCVLSTPEIQKCGDMAVAFRRQRLKPEIQCVSAKSPQHCMERIQAEQVDAVTLSGEDIYTAGKTYGLVPAAGEHYAPEDSSNSYYVVAVVRRDSSHAFTLDELRGKRSCHAGFGSPAGWDVPVGALIQRGFIRPKDCDVLTAVSEFFNASCVPVNNPKNYPSSLCALCVGDEQGRNKCVGNSQERYYGYRGAFRCLVENAGDVAFVRHTTVFDNTNGHNSEPWAAELRSEDYELLCPNGARAEVSQFAACNLAQIPPHAVMVRPDTNIFTVYGLLDKAQDLFGDDHNKNGFKMFDSSNYHGQDLLFKDATVRAVPVGEKTTYRGWLGLDYVAALEGMSSQQCSGAAAPAPGAPLLPLLLPALAARLLPPAL
MCF7; [3]
  percentage of EdU-negative: 26.1 ± 0.62%
MCF7; protein concentration 0.225 µM
  percentage of EdU-negative: 27.8 ± 1.6%
hTERT-HMEC; [3]
  percentage of EdU-negative: 6.116 ± 0.02%
hTERT-HMEC; protein concentration 0.225 µM
  percentage of EdU-negative: 26.6 ± 0.69%

## MRGTPGDADGGGRAVYQSMCKPITGTINDLNQQVWTLQGQNLVAVPRSDSVTPVTVAVITCKYPEALEQGRGDPIYLGIQNPEMCLYCEKVGEQPTLQLKEQKIMDLYGQPEPVKPFLFYRAKTGRTSTLESVAFPDWFIASSKRDQPIILTSELGKSYNTAFELNIND [Q9NZH8]
MCF7; [3]
  percentage of EdU-negative: 22.9 ± 0.82%
MCF7; protein concentration 0.225 µM
  percentage of EdU-negative: 23 ± 2.5%
hTERT-HMEC; [3]
  percentage of EdU-negative: 4.85 ± 0.94%
hTERT-HMEC; protein concentration 0.225 µM
  percentage of EdU-negative: 5.31 ± 0.92%

## MRHLGAFLFLLGVLGALTEMCEIPEMDSHLVEKLGQHLLPWMDRLSLEHLNPSIYVGLRLSSLQAGTKEDLYLHSLKLGYQQCLLGSAFSEDDGDCQGKPSMGQLALYLLALRANCEFVRGHKGDRLVSQLKWFLEDEKRAIGHDHKGHPHTSYYQYGLGILALCLHQKRVHDSVVDKLLYAVEPFHQGHHSVDTAAMAGLAFTCLKRSNFNPGRRQRITMAIRTVREEILKAQTPEGHFGNVYSTPLALQFLMTSPMRGAELGTACLKARVALLASLQDGAFQNALMISQLLPVLNHKTYIDLIFPDCLAPRVMLEPAAETIPQTQEIISVTLQVLSLLPPYRQSISVLAGSTVEDVLKKAHELGGFTYETQASLSGPYLTSVMGKAAGEREFWQLLRDPNTPLLQGIADYRPKDGETIELRLVSW
MCF7; protein concentration 0.012 µM
  percentage of EdU-negative: 27 ± 1.9%
MCF7; protein concentration 0.12 µM
  percentage of EdU-negative: 25.5 ± 1.3%
hTERT-HMEC; protein concentration 0.012 µM
  percentage of EdU-negative: 5.24 ± 0.2%
hTERT-HMEC; protein concentration 0.12 µM
  percentage of EdU-negative: 6.61 ± 0.18%

## MRIMLLFTAILAFSLAQSFGAVCKEPQEEVVPGGGRSKRDPDLYQLLQRLFKSHSSLEGLLKALSQASTDPKESTSPEKRDMHDFFVGLMGKRSVQPDSPTDVNQENVPSFGILKYPPRAE [Q9UHF0]
MCF7; [3]
  percentage of EdU-negative: 22.8 ± 2.6%
MCF7; protein concentration 0.225 µM
  percentage of EdU-negative: 25.6 ± 1.7%
hTERT-HMEC; [3]
  percentage of EdU-negative: 5.911 ± 0.0092%
hTERT-HMEC; protein concentration 0.225 µM
  percentage of EdU-negative: 5.91 ± 0.065%

## MRIWWLLLAIEICTGNINSQDTCRQGHPGIPGNPGHNGLPGRDGRDGAKGDKGDAGEPGRPGSPGKDGTSGEKGERGADGKVEAKGIKGDQGSRGSPGKHGPKGLAGPMGEKGLRGETGPQGQKGNKGDVGPTGPEGPRGNIGPLGPTGLPGPMGPIGKPGPKGEAGPTGPQGEPGVRGIRGWKGDRGEKGKIGETLVLPKSAFTVGLTVLSKFPSSDMPIKFDKILYNEFNHYDTAAGKFTCHIAGVYYFTYHITVFSRNVQVSLVKNGVKILHTKDAYMSSEDQASGGIVLQLKLGDEVWLQVTGGERFNGLFADEDDDTTFTGFLLFSSP [P0C862]
MCF7; [4]
  percentage of EdU-negative: 28.2 ± 0.72%
MCF7; [5]
  percentage of EdU-negative: 30.09 ± 0.089%
hTERT-HMEC; [4]
  percentage of EdU-negative: 5.3 ± 0.76%
hTERT-HMEC; [5]
  percentage of EdU-negative: 7.183 ± 0.018%

## MRKELQLSLSVTLLLVCGFLYQFTLKSSCLFCLPSFKSHQGLEALLSHRRGIVFLETSERMEPPHLVSCSVESAAKIYPEWPVVFFMKGLTDSTPMPSNSTYPAFSFLSAIDNVFLFPLDMKRLLEDTPLFSWYNQINASAERNWLHISSDASRLAIIWKYGGIYMDTDVISIRPIPEENFLAAQASRYSSNGIFGFLPHHPFLWECMENFVEHYNSAIWGNQGPELMTRMLRVWCKLEDFQEVSDLRCLNISFLHPQRFYPISYREWRRYYEVWDTEPSFNVSYALHLWNHMNQEGRAVIRGSNTLVENLYRKHCPRTYRDLIKGPEGSVTGELGPGNK [Q9UNA3]
MCF7; [6]
  percentage of EdU-negative: 26.4 ± 0.46%
MCF7; [7]
  percentage of EdU-negative: 27.4 ± 2.4%
hTERT-HMEC; [6]
  percentage of EdU-negative: 4.541 ± 0.041%
hTERT-HMEC; [7]
  percentage of EdU-negative: 5.48 ± 1.1%
